Patent US20100261660A1 (published 2010)

molecular target: T1, Soluble CTLA-4-Ig (extracellular domain of human CTLA-4 fused to the Fc portion of human IgG1) (human, UniProt P16410 36-161, FITC-conjugated in the FACS binding assays); experiment: competitive FACS on transfected cells, FITC-sCTLA-4-Ig with biotin-sCD28-Ig; grade 0-2 of CTLA-4/CD28 ratio vs WT hB7-1
T1 construct: extracellular domain; bought from R&D Systems; also called sCTLA-4-Ig; CTLA-4-Ig Fc; not shown: Fc portion of human IgG1
T1 sequence (P16410 36-161): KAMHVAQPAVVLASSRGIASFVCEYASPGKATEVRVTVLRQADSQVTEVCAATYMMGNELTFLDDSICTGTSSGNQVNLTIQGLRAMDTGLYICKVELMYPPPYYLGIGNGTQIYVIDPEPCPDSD

Binder	Binding Score
Round 2 CTLA4BP 2x2-f3 (ligand) VIYVTKEVKEVATLSCGHNVSVEELAQTRIYWQKEKKMVLIMMSGDMNIWPEYKNRTIFDITNNLSIVILALRPSDEGTECVVLKYEKDAFKREHLAEVTLSVKADFPTPSISDFEIPPSNIRRIICSTSGGFPEPHLSWLENGEELNAINTTVSQDPGTELYTVSSKLDFNMTTNHSFMCLIKYGHLRVNQTFNWNTPKQEHFPDNLLPSWAITLISVNGIFVICCLTYCFAPRCRERRRNERLRRESVCPV	1
Round 2 CTLA4BP 2x1-e2 (ligand) VIHVTKEVKEVATLSCGHNVSDEELAQTRIHWQKEKKMVLTMMSGDMNIWPEYKNRTIFDITNNLSIVILALRPSDEGTYECVVLKYEKDAFKREHLAEVTLSVKADFPTPSISDFEIPPSNIRRIICSTSGGFPEPHLSWLENGEELNAINTTVSQDPGTELYTVSSKLDFNMTTNHSFMCLIKYGHLRVNQTFNWNTPKQEHFPDNLLPSAITLISANGIFVICCLTYCFAPRCRERRRNERLRRESIHPV	1
Round 2 CTLA4BP 2x3-h2 (ligand) VIHVTKEVKEVATLSCGHNVSVEELAQTRIYWQKEKKMVLTMMSGDMNIWPEYKNRTIFDITNNLSIVILALRPSDEGTYECVVLKYEKDAFKREHLAEVMLSVKADFPTPSISDFEIPPSNIRRIICSTPGGFPEPRLAWMEDGEELNAISTTVSQDPGTELYAVSSKLDFNMTTNHSFMCLIKYGHLRVNQTFNWNTTKQEHFPDNLLPSWAITLISVKGIFVICCLTYCFAPRWRERKSNERLRRESVRPV	0
Round 2 CTLA4BP 2x1-c9 (ligand) VIHVTKEVKEVATLSCGHNVSAEELAQTRIYWQKEKKMVLTMMSGDMNIWPEYKNRTIFDITNNLSIVILALRPSDEGTYECVVLEYEKDAFKREHLAEVMLSVKADFPTPSITDFEIPTSNIRRIICSTSGGFPEPRLAWMEDGEELNAISTTASQDPETELYTVSSKLDFNMTTNHSFMCLIKYGHLRVNQTFNWNTPKQEHFPDNLLPSWAITLISVNGIFVICCLTHCFAPRCRERRRNERLRRESVCPV	1
Round 2 CTLA4 A-H3-6 (ligand) GISQVTKSVKEMAALSCDYNISIDELARMRIYWQKDQQMVLSIISGQVEVWPEYKNRTFPDIINNLSLMILALRLSDKGTYTCVVQKNENGSFRREHLTSVTLSIRADFPVPSINDLGNPSPNIRRLICSTSGGFPRPHLYWLENGEELNATNTTLSQDPETKLYMISSELDFNMTSNHSFLCLVKYGDLTVSQTFYWQESKPTPSANQHLTWTIIIPVSAFGISVIIAVILTCLTCRNAAIRRQRRENEVEMQSCSQSP	1
Round 2 CTLA4 A-B4-6 (ligand) ITPKSVTKRVKETVMLSCDYNTSTEELTSLRIYWQKDSKMVLAILPGKVQVWPEYKNRTITDMNDNPRIVILALRLSDKGTYTCVVQKNENGSFRREHLTSVTLSIRADFPVPTINDLGNPSPNIRRLICSTSGGFPRPHLYWLENGEELNATNTTLSQDPETKLYMISSELDFNMTSNHSFLCLVKYGDLTVSQTFYWQESKPTPSANQHLTWTIIIPVSAFGISVIIAVILTCLTCRNAAIRRQRRENEVEMQSCSQSP	1
Round 2 CTLA4 A-F1-6 (ligand) ITPKSVTKRVKETVMLSCDYSTSTEELTSLRIYWQKDSKMVLAILPGKVQVWPEYKNRTITDMNDNPRIVILALRLSDKGTYTCVVQKNENGSFRREHLTSVRLMIRADFPVPTINDLGNPSPNIRRLICSTSGGFPRPHLYWLENGEELNATNTTLSQDPETKLYMISSELDFNMTSNHSFLCLVKYGDLTVSQTFYWQESKPTPSANQHLTWTIIIPVSAFGISVIIAVILTCLTCRNAAIRRQRRENEVEMQSCSQSP	1
Round 2 CTLA4 A-F10-1 (ligand) ITPKSVTKRVKETVMLSCDYNTSTEELTSLRIYWQKDSKMVLAILPGKVQVWPEYKNRTITDMNDNPRIVILALRLSDKGTYTCVVQKNENGSFRREHLTSVTLSIRADFPVPTINDLGNPSPNIRRLICSTSGGFPRPHLYWLENGEELNATNTTLSQDPETKLYMISSELDFNMTSNHSFLCLVKYGDLTVSQTLYWQESKPTPSANQHLTWTIIIPVSAFGISVIIAVILTCLTCRNAAIRRQRRENEVEMQSCSQSP	1
Round 2 CTLA4 A-E2-6 (ligand) ITPKSVTKRVKETVMLSCDYNTSTEELTSLRIYWQKDSKMVLAILPGKVQVWPEYKNRTITDMNDNPRIVILALRLSDSGTYTCVVQKNENGSFRREHLTSVRLMIRADFPVPTINDLGNPSPNIRRLICSTSGGFPRPHLYWLENGEELNATNTTLPQDPETKLYMISSELDFNMTSNHSFLCLVKYGDLTVSQTFYWQESKPTPSANQHLTWTIIIPVSAFGISVIIAVILTCLTCRNAAIRRQRRENEVEMQSCSQSP	1

Now from value to binder:

Binding Score	Binder
1	Round 2 CTLA4BP-5x3-11b (ligand) VIHVTKEVKEVATLSCGHNVSVEELAQTRIYWQKEKKMVLTMMSGDMNIWPEYKNRTIFDITNNLSIVILALRSSDEGTYECVVLKYEKDAFKREHLAEVTLSVKADFPTPSITDFEIPPSNIRRIICSTSGGFPEPHLSWLENGEELNAISTTVSQDPETELYTVSSKLDFNMTTNRSFVCLIKYGHLRVNQTFNWNTPKQEHFPDNLLPSWAITLISVNGIFVICCLTYCFAPRCRERRSNERLRRESVRPV
2	Round 2 CTLA4BP-5x9-12c (ligand) VIHVTKEVKEVATLSCGHNVSVEELAQTRIHWQKEKKMVLTMMSGDMNIWPEYKNRTIFDITNNLSIVILALRPSDEGTYECVVLKYEKDAFKREHLAEVMLSVKADFPTPSITDFEIPPSNIRRIICSTSGGFPEPHLSWLENGEELNAINTTASQDPETELYTVSSKLDFNMTTNHSFMCLIKYGHLRVNQTFNWNTPKQEHFPDNLLPSWAITLISVNGIFVICCLTYCFAPRCRERKSNERLRRESVRPV
2	Round 2 CTLA4BP-5x5-6e (ligand) VIHVTKEVKEVATLSCGHNVSVEELAQTRIHWQKEKKMVLTMMSGDMNIWPEYKNRTIFDITNNLSIVILALRPSDEGTYECVVLKYEKDAFKREHLAEVMLSVKADFPTPSITDFEIPPSNIRRIICSTSGGFPEPHLSWLENGEELNAISTTVSQDPETELYTVSSKLDFNMTTNHSFMCLIKYGHLRVNQTFNWNTTKQEHFPDNLLPSWAITLISANGIFVICCLTHCFAPRCRERKRNERLRRESVRPV
2	Round 2 CTLA4BP-5x4-1f (ligand) VIHVTKEVKEVATLSCGHNVSVEELAQTRIHWQKEKKMVLTMMSGDMNIWPEYKNRTIFDITNNLSIVILALRPSDEGTYECVVLKYEKDAFKREHLAEVMLSVKADFPTPSISDFEIPTSNIRRIICSTSGGFPEPHLFWLENGEELNAINTTVSQDPETELYTVSSKLDFNMTTNHSFMCLIKYGHLRVNQTFNWNTPKQEHFPDNLLPSWAITLISVNGIFVICCLTYCFAPRCRERRRNERLRRESVCPV
2	Round 2 CTLA4BP-5x4-11d (ligand) VIHVTKEVKEVATLSCGLNVSVEELAQTRIHWQKEKKMVLTMMSGDMNIWPEYKNRTIFDITNNLSIVILALRPSDEGTYECVVLKYDKDAFKREHLAEVTLSVKADFPTPSISDFEIPPSNIRRIICSTSGGFPEPHLSWLENGEELNAINTTVSQDPETELYTVSSKLDFNMTANHSFVCLIKYGHLRVNQTFNWNTPKQEHFPDNLLPSWAITLISVNGIFVICCLTYRFAPRCRERKSNERLRRESVRPV
2	Round 2 CTLA4BP-5x6-9d (ligand) VIHVTKEVKEVATLSCGHNVSVEELAQTRIHWQKEKKMVLTMMSGDMNIWPEYKNRTIFDITNNLSIVILALRPSDEGTYECVVLKYEKDAFKREHLAEVMLSVKADFPTPSISDFEIPTSNIRRIICSTSGGFPEPHLSWLENGEELNAINTTVSQDPETELYTVSSKLDFNMTANHSFVCLIKYGHLRVNQTFNWNTPKQEHFPDNLLPSWAITLISVNGIFVICCLTYCFAPRCRERRRNERLRRESVRPV
2	Round 2 CTLA4BP-5x8-1f (ligand) VIHVTKEVKEVATLSCGHNVSVEELAQTRIHWQKEKKMVLTMMSGDMNIWPEYKNRTIFDITNNLSIVILALRPSDEGTYECVVLKYEKDAFKREHLAEVMLSVKADFPTPSITDFEIPPSNIRRIICSASGGFPEPHLFWLENGEELNAINTTVSQDPETELYAVSSKLDFNMTTNHSFMCLIRYGHLRVNQTFNWNTPKQEHFPDNLLPSWAITLISVNGIFVICCLTYCFAPRCRERKSNERLRRESVRPV
2	Round 2 CTLA4BP-5x5-2e (ligand) VIHVTKEVKEVATLSCGLNVSVEELAQTRIHWQKEKKMVLTMMSGDMNIWPEYKNRTIFDITNNLSIVILALRPSDEGTYECVVLKYEKDAFKREHLAEVMLSVKADFPTPSISDFEIPPSNIRRIICSTSGGFPEPHLSWLENGEELNAINTTVSQDPETELYAVSSKLDFNMTTNHSFMCLIKYGHLRVNQTFNWNTPKQEHFPDNLLPSWAITLISVNGIFVICCLTYCFAPRCRERRRNETLRRESVRPV
2	Round 2 CTLA4BP-5x4-12c (ligand, residues 1-34 left out as the signal peptide; also called CTLA-4BP 5×4-12c; clone R2 CTLA-4BP 5×4-12c) VIHVTKEVKEVATLSCGHNVSVEELAQTRIHWQKEKKMVLTMMSGDMNIWPEYKNRTIFDITNNLSIVILALRPSDEGTYECVVLKYEKDAFKREHLAEVMLSVKADFPTPSISDFEIPPSNIRRIICSTSGGFPEPHLFWLENGEELNAINTTVSQDPETELYTVSSKLDFNMTTNHSFMCLIKYGHLRVNQTFNWNTPKQEHFPDNLLPSWAITLISANGIFVICCLTYRFAPRCRERKSNETLRRESVRPV
1	Round 2 CTLA4BP 2x4-g9 (ligand) VIHVTKEVKEVATLSCGHNVSVEELAQTRIYWQKDKKMVLTMMSGDMNIWPEYKNQTIFDITNNLSIVILALRPSDEGTYECVVLKYEKDAFKQEHLAEVMLSVKADFPTPSISDFEIPPSNIRRIICSTSGGFPEPRLAWMEDGEELNAISTTVSQDPGTELCTVSSKLDFNMTTNHSFMCLIRYGHLRVNQTFNWNTPKQEHFPDNLLPSWAITLISVKGIFVICCLTYCFAPRGRERKSNGRLRRESVHPV
